Bridges are numbered along the chain shown (N, C = ends). Where no end group is shown, it is not given here.
Molecular target: T1, human receptor-activity modifying protein 3 Extracellular Topological Domain (RAMP3-ETD), fluorescein-labelled (Homo sapiens, UniProt O60896)
T1 construct: RAMP3-ETD; residues 28–117; UNIPROT identifier O60896; His tag (N); thrombin cleavage site (N); made in house; host or cells: E. coli BL21DE3pLys
T1 sequence (O60896 28-117): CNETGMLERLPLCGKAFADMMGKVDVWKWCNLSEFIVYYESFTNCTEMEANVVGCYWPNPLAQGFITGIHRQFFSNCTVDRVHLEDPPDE
Experiment: Isothermal binding assay, fluorescence anisotropy, RAMP-3
Details: for Anisotropy: 50 nM labelled RAMP-3, PBS pH 7.4, 25°C, mean of five measurements
Description: The human receptor-activity modifying protein 3 Extracellular Topological Domain (RAMP3-ETD; residues 28–117; UNIPROT identifier O60896; Sequence in S1 File) was obtained by heterologous production in E. coli and further purified from inclusion bodies. The synthetic DNA sequence encoding the RAMP3-ETD of RAMP3 was cloned into bacterial protein expression vector pET28b (Novagen/EMD Millipore) from the synthetic gene using NdeI and EcoRI. The sequence and identity of the gene in the pET28b-RAMP3 construct was confirmed with DNA sequencing. The gene synthesis, cloning and sequencing services were provided by GenScript Corporation (Piscataway, NJ, USA).
RAMP3 was produced and purified as described previously for the homologous protein RAMP2 [56]. The RAMP3-ETD was produced as a fusion protein containing an N-terminal histidine tag and a thrombin protease cleavage site, by heterologous expression in E. coli BL21DE3pLys (1 mM IPTG, 37°C, 3 h). […] The purified RAMP3-ETD was refolded by rapid dilution into cold buffer 50 mM sodium phosphate buffer (pH 8.3) containing 1 M arginine hydrochloride, 5 mM reduced glutathione, 1 mM oxidized glutathione, and 1 mM EDTA and left stand for 24 h at 4°C. After refolding, RAMP3-ETD was dialyzed, concentrated in AMICON (Millipore, Brazil), and stored in 20 mM sodium phosphate buffer and 500 mM NaCl, pH 7.0, in liquid nitrogen until use. Purity was over 95% as judged by SDS-PAGE, routine size-exclusion chomatography and MALDI-ToF-MS. The purified RAMP3 was quantified by absorbance at 280 nm, using 21,345 M^-1cm^−1 as extinction coefficient.
The proteins (CTR, RAMP and murine amylin) were labeled with fluorescein isothiocyanate (FITC; Sigma-Aldrich; 0.2 mM final concentration, from stock in DMSO at 5 mM freshly prepared) in 20 mM Na2HPO4, 300 mM NaCl, pH 7.0, for 60 min at 25°C protected from light. The reaction was quenched by adding an excess of Tris-HCl. The free fluorescein was removed by chromatography with a Sephadex G25 desalting column (GE Healthcare, Brazil). The labeling efficiency, final yield and protein quantification were calculated as described elsewhere. The labeling efficiency was below 1 mol FITC:1 mol protein for all labeling procedures. Labeled proteins were stored until use protected from light at -20°C for no longer than 3 months.
The fluorescence measurements were conducted in a Spectramax M5 (Molecular Devices) microplate reader, with excitation and emission set at 480 nm and 520 nm respectively, with cut-off filter 515 nm. The results represent the mean and the standard error of the mean (SEM) of five measurements. Binding data analysis was performed with SigmaPlot 12.5 (Systat Software, Inc., CA, USA).
Fig 4 Amylin self-assembly and interaction with co-receptors. […] Assays were conducted in PBS, pH 7.4, 25°C, in the presence of 50 nM FITC-labelled proteins (amylin, CTR–1 or RAMP–3). Ex 480 nm, Em 520 nm, filter 515 nm. The raw data can be found in S2 File.

For “PEGylated human amylin: human amylin monoconjugated at the N-terminal Lys1 region with 5 kDa methoxyl polyethylene glycol succinimidyl carbonate (mPEGsc5k) (KCNTATCATQRLANFLVHSSNNFGAILSSTNVGSNTY-NH2; disulfide 2-7; also: one mPEG 5 kDa (mPEGsc5k) on a Lys1 amino group)”, the “binding to coreceptor RAMP3 (in words)” value (fluorescence anisotropy, PBS pH 7.4, 25°C, 50 nM FITC-labelled protein) was “PEGylation did not abolish the assembly”, the Anisotropy (ligand 0.0492 µM) was 0.0481 and the Anisotropy (ligand 0.1229 µM) was 0.0421. The Anisotropy (ligand 0.3072 µM) was 0.0449, the Anisotropy (ligand 0.768 µM) was 0.0486 and the Anisotropy (ligand 1.92 µM) was 0.0614. The Anisotropy (ligand 4.8 µM) was 0.1188, the Anisotropy (ligand 12 µM) was 0.2199 and the Anisotropy (ligand 30 µM) was 0.1286.

— publication PMC4598023 (PLoS ONE, 2015)
